{"source": "patent US20070087411A1", "data": [{"biological_target": "recombinant human IL-1β (human) (UniProt P01584)", "sequence (P01584 117-269 limits assumed)": "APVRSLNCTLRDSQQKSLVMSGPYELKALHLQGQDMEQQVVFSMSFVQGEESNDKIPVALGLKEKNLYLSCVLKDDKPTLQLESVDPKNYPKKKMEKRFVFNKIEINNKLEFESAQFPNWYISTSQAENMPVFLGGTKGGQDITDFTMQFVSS", "assay": "cell-based or functional assay", "units": {"IC50 pM (HEK293/NFκB-luciferase bioassay, IL-1β at 4 pM)": "pM"}, "values": [{"substance": "hIL-1RAcp.hIL-1R1.TG.hFc.ARA.CTP.TG.hFc (Fc fusion)", "IC50 pM (HEK293/NFκB-luciferase bioassay, IL-1β at 4 pM)": 100}, {"substance": "hIL-1RAcp.hIL-1R1.myc.myc.His6 (receptor)", "IC50 pM (HEK293/NFκB-luciferase bioassay, IL-1β at 4 pM)": 3400}, {"substance": "hIL-1RI.TG.hFc.ARA.CTP.TG.hFc.ARA.hIL-1RAcP (Fc fusion)", "IC50 pM (HEK293/NFκB-luciferase bioassay, IL-1β at 4 pM)": 23}]}]}
